Assays:
Assay type in all cases: biochemical
[1] = Oxidation of valencene by P450cam mutants, product proportions by GC; details: substrate Valencene
Procedure: (§1) For simple screening the substrate can be added to culture and the incubation continued. However, due to impurities from the culture media the cells were generally washed twice with 0.5 vol. of buffer P, (KH2PO4 6.4 g, K2HPO4.3H2O 25.8 g, H2O to 4 liters, pH 7.4) and resuspended in 0.25 vol. oxygen saturated buffer P containing 24 mM glucose. Substrate was added to 1 mM and the incubation continued at 30° C. The reaction was allowed to run for 24 hours with periodic additions of substrate and glucose.
(§2) The reaction was analysed by extracting 1 ml of the incubation mixture with 250 μl of ethylacetate. After centrifuging in a microcentrifuge at 13,000 g for 2 minutes, 2 μl of the organic extract was injected onto a 0.25 mm×30 m DB-1 gas chromatography column in a Fisons GC 8000 series gas chromatograph. The samples were carried through the column using helium carrier gas and the compounds present were detected using a flame ionisation detector.

[2] = Oxidation of α-pinene by P450cam mutants, product proportions by GC; details: substrate α-Pinene
Procedure: as §1, §2

[3] = Oxidation of L-limonene by P450cam mutants, product proportions by GC; details: substrate L-Limonene
Procedure: as §1, §2

[4] = single oxygen insertion products only, 30 m DB-1 GC column

B1: Wild-type: Wild-type P450cam haem monooxygenase from Pseudomonas putida, sequence in Table 7 (protein, UniProt P00183 2-415, looked up)
Camphor 5-monooxygenase: TTETIQSNANLAPLPPHVPEHLVFDFDMYNPSNLSAGVQEAWAVLQESNVPDLVWTRCNGGHWIATRGQLIREAYEDYRHFSSECPFIPREAGEAYDFIPTSMDPPEQRQFRALANQVVGMPVVDKLENRIQELACSLIESLRPQGQCNFTEDYAEPFPIRIFMLLAGLPEEDIPHLKYLTDQMTRPDGSMTFAEAKEALYDYLIPIIEQRRQKPGTDAISIVANGQVNGRPITSDEAKRMCGLLLVGGLDTVVNFLSFSMEFLAKSPEHRQELIERPERIPAACEELLRRFSLVADGRILTSDYEFHGVQLKKGDQILLPQMLSGLDERENACPMHVDFSRQKVSHTTFGHGSHLCLGQHLARREIIVTLKEWLTRIPDFSIAPGAQIQHKSGIVSGVQALPLVWDPATTKAV
Comments [1]: Many small peaks
Approximate proportion of product Pinene oxide [2]: 10%
Approximate proportion of product Verbenol [2]: 30%
Approximate proportion of product Verbenone [2]: 10%
Remaining other products (Comments) [2]: Remaining 50% other products
Comments [3]: Very small quantities
Approximate proportion of Product at 6.10–6.20 min [3, 4]: 30%
Approximate proportion of product Isopiperitenol (6.60–6.70 min) [3, 4]: 70%

— patent publication US7211420B1, “Process for oxidizing terpenes” (ISIS Innovation Limited, priority 1998, dated 2007)
